Source: paper PMC11217399, “Amyloid formation and depolymerization of tumor suppressor p16^INK4a are regulated by a thiol-dependent redox mechanism” (Nature Communications, 2024)
Residue numbers refer to the chain shown, from its start. Names and notes keep the numbering of the source. One block for each molecule: values may come before it.

What was measured:
[1] = target: endogenous p16 of Ishikawa cells (human (endogenous in Ishikawa cells)) (UniProt P42771); assay: cross-linking; lysates of cancer cell lines without added oxidant, SDS lysis buffer, non-reducing SDS-PAGE and western blot for p16
[2] = target: wild-type 6xHis-tagged p16 expressed in HEK293 cells (human) (UniProt P42771); assay: cross-linking; HEK293 cells transiently expressing p16-His variants, 200 µM H2O2 in media for the times indicated, stopped with 10 µg/mL catalase and 50 mM NEM; non-reducing SDS-PAGE and western blot for p16
[3] = target: the molecule itself; assay: cross-linking; intermolecular disulfide formed by oxidant (20 µM p16, 200 µM diamide, or H2O2 with or without 25 mM bicarbonate), 4 mM HEPES pH 7.4, room temperature; free cysteines blocked with 10 mM NEM; non-reducing SDS-PAGE
[4] = target: the molecule itself; assay: Thioflavin-T fluorescence (amyloid formation); 20 µM p16 (series 5-60 µM), 10 µM ThT, oxidant (200 µM diamide, or H2O2 with or without bicarbonate) added at the start, 4 mM HEPES pH 7.4, 25 °C, quiescent

stoichiometry N [1]: 2
Molecule: endogenous p16 of Ishikawa cells (from UniProt P42771 1-156) (natural protein)

stoichiometry N [2]: 2
Molecule: wild-type 6xHis-tagged p16 expressed in HEK293 cells (from UniProt P42771 1-156) (natural protein)

B1: p16^INK4a, wild type (recombinant) (natural protein, human)
chain: GAMEPAAGSSMEPSADWLATAAARGRVEEVRALLEAGALPNAPNSYGRRPIQVMMMGSARVAELLLLHGAEPNCADPATLTRPVHDAAREGFLDTLVVLHRAGARLDVRDAWGRLPVDLAEELGHRDVARYLRAAAGGTRGSNHARIDAAEGPSDIPD
notes: p16INK4a, UniProt P42771; Self-association needs oxidation of Cys72 (diamide or H2O2): intermolecular disulfide dimer, then oligomers and amyloid fibrils; Constructs obtained from Genscript; also called wild-type p16; monomeric p16; source: E. coli BL21(DE3), purified (Ni-NTA, SEC, TEV cleavage, second Ni-NTA, desalting); not shown: His6, N-terminal, cleaved; protein A tag, N-terminal, cleaved
stoichiometry N [3]: 2

B2: p16^INK4a G122S (recombinant) (natural protein, human)
chain: B1 chain with G124S
notes: p16INK4a, UniProt P42771; previously reported cancer mutation; source: E. coli BL21(DE3), purified (Ni-NTA, SEC, TEV cleavage, second Ni-NTA, desalting); not shown: His6, N-terminal, cleaved; protein A tag, N-terminal, cleaved
binding result [4]: binds

B3: p16^INK4a L37S (recombinant, stabilizing mutation) (natural protein, human)
chain: B1 chain with L39S
notes: p16INK4a, UniProt P42771; source: E. coli BL21(DE3), purified (Ni-NTA, SEC, TEV cleavage, second Ni-NTA, desalting); not shown: His6, N-terminal, cleaved; protein A tag, N-terminal, cleaved
binding result [4]: binds

B4: p16^INK4a A127S (recombinant) (natural protein, human)
chain: B1 chain with A129S
notes: as for B2
binding result [4]: binds

B5: p16^INK4a V95A (recombinant) (natural protein, human)
chain: B1 chain with V97A
notes: as for B2
binding result [4]: binds

B6: p16^INK4a A20S (recombinant) (natural protein, human)
chain: B1 chain with A22S
notes: as for B2
binding result [4]: binds

B7: p16^INK4a D84N (recombinant) (natural protein, human)
chain: B1 chain with D86N
notes: as for B2
binding result [4]: binds
